Results reported in article PMC8971729 (2022).

T1: human CD46 protein (His tag) (human, UniProt P15529)
T1 chain: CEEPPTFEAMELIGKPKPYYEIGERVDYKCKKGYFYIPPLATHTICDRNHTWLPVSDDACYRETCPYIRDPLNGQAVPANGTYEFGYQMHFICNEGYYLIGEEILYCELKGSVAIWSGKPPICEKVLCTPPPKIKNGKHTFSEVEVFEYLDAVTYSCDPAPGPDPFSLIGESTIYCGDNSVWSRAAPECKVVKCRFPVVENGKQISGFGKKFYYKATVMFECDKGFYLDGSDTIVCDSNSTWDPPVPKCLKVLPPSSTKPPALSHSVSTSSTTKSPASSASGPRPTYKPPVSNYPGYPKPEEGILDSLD

T2: Human desmoglein-2 Fc chimera protein (DSG2) (human, UniProt Q14126)
T2 chain: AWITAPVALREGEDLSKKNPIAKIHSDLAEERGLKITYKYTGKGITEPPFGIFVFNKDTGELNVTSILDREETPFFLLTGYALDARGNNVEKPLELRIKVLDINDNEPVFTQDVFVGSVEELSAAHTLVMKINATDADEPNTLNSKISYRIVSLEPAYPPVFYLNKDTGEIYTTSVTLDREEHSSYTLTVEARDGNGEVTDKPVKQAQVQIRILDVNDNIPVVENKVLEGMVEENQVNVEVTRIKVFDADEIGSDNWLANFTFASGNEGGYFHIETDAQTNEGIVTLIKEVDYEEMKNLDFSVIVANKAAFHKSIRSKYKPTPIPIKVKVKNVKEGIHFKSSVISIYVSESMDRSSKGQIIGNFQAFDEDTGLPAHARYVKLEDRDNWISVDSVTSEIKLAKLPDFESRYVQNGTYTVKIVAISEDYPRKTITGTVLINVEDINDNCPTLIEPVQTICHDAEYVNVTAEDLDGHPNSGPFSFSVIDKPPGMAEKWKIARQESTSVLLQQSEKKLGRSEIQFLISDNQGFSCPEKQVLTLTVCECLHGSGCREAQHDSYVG

B1: human CXADR Fc chimera protein (CAR) (Fc fusion)
chain: LSITTPEEMIEKAKGETAYLPCKFTLSPEDQGPLDIEWLISPADNQKVDQVIILYSGDKIYDDYYPDLKGRVHFTSNDLKSGDASINVTNLQLSDIGTYQCKVKKAPGVANKKIHLVVLVKPSGARCYVDGSEEIGSDFKIKCEPKEGSLPLQYEWQKLSDSQKMPTSWLAEMTSSVISVKNASSEYSGTYSCTVRNRVGSDQCLLRLNVVPPSNKAG
B2: HAdV-B3 fiber knob (domain or fragment)
chain: NSIALKNNTLWTGPKPEANCIIEYGKQNPDSKLTLILVKNGGIVNGYVTLMGASDYVNTLFKNKNVSINVELYFDATGHILPDSSSLKTDLELKYKQTADFSARGFMPSTTAYPFVLPNAGTHNENYIFGQCYYKASDGALFPLEVTVMLNKRLPDSRTSYVMTFLWSLNAGLAPETTQATLITSPFTFSYIREDD
B3: HAdV-C5 fiber knob protein (domain or fragment)
chain: KNNDKLTLWTTPAPSPNCRLNAEKDAKLTLVLTKCGSQILATVSVLAVKGSLAPISGTVQSAHLIIRFDENGVLLNNSFLDPEYWNFRNGDLTEGTAYTNAVGFMPNLSAYPKSHGKTAKSNIVSQVYLNGDKTKPVTLTITLNGTQETGDTTPSAYSMSFSWDWSGHNYINEIFATSSYTFSYIAQE

How the values were obtained:
Assay in all cases: SPR
[1] = target: HAdV-D10 fiber knob protein (human adenovirus type 10 (HAdV-D10))
[2] = target: T1, human CD46 protein (His tag)
[3] = target: T1, human CD46 protein (His tag)
[4] = target: T2, Human desmoglein-2 Fc chimera protein …
[5] = target: B1

B1 gave a koff [1] of 0.0019 s⁻¹.

B2 gave a koff [2] of 0.025 s⁻¹, a Kd [3] of 0.16 µM and a Kd [4] of 66.9 µM.

Work on B3 yielded a koff [5] of 0.0019 s⁻¹.
